Measured values: PMC10681728, “Rad53 regulates the lifetime of Rdh54 at homologous recombination intermediates” (Nucleic Acids Research, 2023)
Values joined by “and” are separate entries in the source; they are usually repeats but may differ in a detail not shown here. Identical values can stand only once. One block for each molecule: values may come before it.

Legend:
[1] = biological target: 6xHis-Rdh54T851A-mCherry (S. cerevisiae); assay: single-molecule fluorescence intensity of clusters (TIRF, DNA curtains); as the cluster size estimate, but 1 nM Rdh54-mCherry mixed with 0.1 or 10 nM GFP-Rad53 or 10 nM GFP-Rad53D339A before injection onto dsDNA curtains
[2] = biological target: 6xHis-Rdh54-mCherry (S. cerevisiae) (UniProt P38086)
[3] = biological target: 6xHis-Rdh54S852A-mCherry (S. cerevisiae); assay: single-molecule fluorescence intensity of clusters (TIRF, DNA curtains); Rdh54-mCherry clusters bound to dsDNA; background-subtracted cluster intensity divided by the mean intensity drop of one fluorophore; estimated molecules per cluster
[4] = biological target: 6xHis-Rdh54S852A-mCherry (S. cerevisiae); assay: single-molecule fluorescence intensity of clusters (TIRF, DNA curtains); as the cluster size estimate, but 1 nM Rdh54-mCherry mixed with 0.1 or 10 nM GFP-Rad53 or 10 nM GFP-Rad53D339A before injection onto dsDNA curtains
[5] = biological target: 6xHis-Rdh54T851AS852A-mCherry (S. cerevisiae); assay: single-molecule fluorescence intensity of clusters (TIRF, DNA curtains); Rdh54-mCherry clusters bound to dsDNA; background-subtracted cluster intensity divided by the mean intensity drop of one fluorophore; estimated molecules per cluster
[6] = biological target: the molecule itself; assay: single-molecule photobleaching step counting (TIRF, DNA curtains); Rdh54-mCherry bound to double-tethered lambda dsDNA; 561 nm laser unshuttered at 25% power, 200 ms integration; steps counted for smaller groups

Molecule: 6xHis-Rdh54T851A (unlabeled) (natural protein)
translocation rate on dsDNA of WT Rdh54 mixed with equimolar unlabeled Rdh54T851A (translocase poisoning) [2]: 23 bp/s

Molecule: 6xHis-Rdh54S852A-mCherry (natural protein)
median estimated molecules per cluster (molecules per cluster) [3]: 4.22
median estimated molecules per cluster with 10 nM GFP-Rad53 (molecules per cluster) [4]: 5.7

B1: 6xHis-Rdh54-mCherry (natural protein, S. cerevisiae, UniProt P38086 35-958, looked up)
chain: MQIPKYENKPFKPPRRVGSNKYTQLKPTATAVTTAPISKAKVTVNLKRSISAGPTLNLAKKPNNLSSNENTRYFTIMYRKPTTKKHKTWSGDGYATLKASSDKLCFYNEAGKFLGSSMLPSDSDSLFETLFKAGSNEVQLDYELKENAEIRSAKEALSQNMGNPSPPTTSTTETVPSTKNDGGKYQMPLSQLFSLNTVKRFKSVTKQTNEHMTTVPKTSQNSKAKKYYPVFDVNKIDNPIVMNKNAAAEVDVIVDPLLGKFLRPHQREGVKFMYDCLMGLARPTIENPDIDCTTKSLVLENDSDISGCLLADDMGLGKTLMSITLIWTLIRQTPFASKVSCSQSGIPLTGLCKKILVVCPVTLIGNWKREFGKWLNLSRIGVLTLSSRNSPDMDKMAVRNFLKVQRTYQVLIIGYEKLLSVSEELEKNKHLIDMLVCDEGHRLKNGASKILNTLKSLDIRRKLLLTGTPIQNDLNEFFTIIDFINPGILGSFASFKRRFIIPITRARDTANRYNEELLEKGEERSKEMIEITKRFILRRTNAILEKYLPPKTDIILFCKPYSQQILAFKDILQGARLDFGQLTFSSSLGLITLLKKVCNSPGLVGSDPYYKSHIKDTQSQDSYSRSLNSGKLKVLMTLLEGIRKGTKEKVVVVSNYTQTLDIIENLMNMAGMSHCRLDGSIPAKQRDSIVTSFNRNPAIFGFLLSAKSGGVGLNLVGASRLILFDNDWNPSVDLQAMSRIHRDGQKKPCFIYRLVTTGCIDEKILQRQLMKNSLSQKFLGDSEMRNKESSNDDLFNKEDLKDLFSVHTDTKSNTHDLICSCDGLGEEIEYPETNQQQNTVELRKRSTTTWTSALDLQKKMNEAATNDDAKKSQYIRQCLVHYKHIDPARQDELFDEVITDSFTELKDSITFAFVKPGEICLREQ
notes: Rdh54, S. cerevisiae DNA translocase; Name printed as 6xHis-Rdh54-mCherry, plasmid pET15-6xHis-Rdh54; also called WT-Rdh54; WT; source: E. coli Rosetta 2 BL21 (DE3), purified (Ni-NTA, SP cation exchange, S300 SEC)
stoichiometry N [6]: 2 and 4 and 3

Other lines, results leading:

median estimated molecules per cluster with 10 nM GFP-Rad53 (molecules per cluster) [1]: 12.1
Molecule: 6xHis-Rdh54T851A-mCherry (natural protein)

median estimated molecules per cluster (molecules per cluster) [5]: 5.1
Molecule: 6xHis-Rdh54T851AS852A-mCherry (natural protein)
